Experimental data from patent EP1230261B1 (LUDWIG INSTITUTE FOR CANCER RESEARCH, dated 2008).

molecular target: T1, HLA-A*0201 molecules on T2 cells (CEMX721.174.T2) (human); assay: cell-based or functional assay

Compared with SLLMWITQCFL [NY-ESO-1 157-167 peptide SLLMWITQCFL (SEQ ID NO:1)], QLSLLMWIT [NY-ESO-1 155-163 peptide QLSLLMWIT (SEQ ID NO:3)] is lower in “Relative competitor activity (inhibition of CTL lysis of T2 cells given SEQ ID NO:4)” value: 0.04 relative to FluMA 58-66 (SEQ ID NO:5) for the first, 0.01 relative to FluMA 58-66 (SEQ ID NO:5) for the second.

With SLLMWITQL [NY-ESO-1 157-C165L peptide SLLMWITQL (SEQ ID NO:7)] the “Relative competitor activity (inhibition of CTL lysis of T2 cells given SEQ ID NO:4)” value was 0.5 relative to FluMA 58-66 (SEQ ID NO:5).

molecular target: T1, HLA-A*0201 molecules on T2 cells …; assay: cell-based or functional assay; remark: another data set of the same source

Going from SLLMWITQCFL [NY-ESO-1 157-167 peptide SLLMWITQCFL (SEQ ID NO:1)] to SLLMWITAA [peptide SLLMWITAA (SEQ ID NO:27)], the “Competitor activity [mM] 50%” value falls from 0.02 mM to 0.00018 mM (110-fold).

Compared with SLLMWIAQA [peptide SLLMWIAQA (SEQ ID NO:26)], SLAMWITQA [peptide SLAMWITQA (SEQ ID NO:22)] is 5-fold higher in “Competitor activity [mM] 50%” value: 0.0002 mM for the first, 0.001 mM for the second.

Compared with QLSLLMWIT [NY-ESO-1 155-163 peptide QLSLLMWIT (SEQ ID NO:3)], ALLMWITQA [peptide ALLMWITQA (SEQ ID NO:20)] is 23-fold lower in “Competitor activity [mM] 50%” value: 0.03 mM for the first, 0.0013 mM for the second.

Going from SLLMWITQL [NY-ESO-1 157-C165L peptide SLLMWITQL (SEQ ID NO:7)] to SLLMWITQV [NY-ESO-1 157-C165V peptide SLLMWITQV (SEQ ID NO:8)], the “Competitor activity [mM] 50%” value falls from 0.002 mM to 6e-05 mM (33-fold).

Compared with SLLAWITQA [peptide SLLAWITQA (SEQ ID NO:23)], SLLMAITQA [peptide SLLMAITQA (SEQ ID NO:24)] is higher in “Competitor activity [mM] 50%” value: < 0.0001 mM for the first, 0.004 mM for the second.

First: SALMWITQA [peptide SALMWITQA (SEQ ID NO:21)]
Second: SLLMWITQS [peptide SLLMWITQS (SEQ ID NO:19)]
The “Competitor activity [mM] 50%” value of the first is 2-fold lower: 0.01 mM for the first, 0.02 mM for the second.

SLLMWATQA [peptide SLLMWATQA (SEQ ID NO:25)] was tested, and the “Competitor activity [mM] 50%” value was 0.01 mM.

First: SLLMWITQCFL [NY-ESO-1 157-167 peptide SLLMWITQCFL (SEQ ID NO:1)]
Second: SLLMWITAA [peptide SLLMWITAA (SEQ ID NO:27)]
The “Relative competitor activity to SEQ ID NO:2” value of the first is lower: 13 relative to SEQ ID NO:2 for the first, 1500 relative to SEQ ID NO:2 for the second.

First: SLLMWIAQA [peptide SLLMWIAQA (SEQ ID NO:26)]
Second: SLAMWITQA [peptide SLAMWITQA (SEQ ID NO:22)]
The “Relative competitor activity to SEQ ID NO:2” value of the first is higher: 1350 relative to SEQ ID NO:2 for the first, 270 relative to SEQ ID NO:2 for the second.

First: QLSLLMWIT [NY-ESO-1 155-163 peptide QLSLLMWIT (SEQ ID NO:3)]
Second: ALLMWITQA [peptide ALLMWITQA (SEQ ID NO:20)]
The “Relative competitor activity to SEQ ID NO:2” value of the first is lower: 9 relative to SEQ ID NO:2 for the first, 208 relative to SEQ ID NO:2 for the second.

Compared with SLLMWITQL [NY-ESO-1 157-C165L peptide SLLMWITQL (SEQ ID NO:7)], SLLAWITQA [peptide SLLAWITQA (SEQ ID NO:23)] is higher in “Relative competitor activity to SEQ ID NO:2” value: 130 relative to SEQ ID NO:2 for the first, > 2700 relative to SEQ ID NO:2 for the second.

First: SLLMAITQA [peptide SLLMAITQA (SEQ ID NO:24)]
Second: SALMWITQA [peptide SALMWITQA (SEQ ID NO:21)]
The “Relative competitor activity to SEQ ID NO:2” value of the first is higher: 68 relative to SEQ ID NO:2 for the first, 27 relative to SEQ ID NO:2 for the second.

Compared with SLLMWITQS [peptide SLLMWITQS (SEQ ID NO:19)], SLLMWATQA [peptide SLLMWATQA (SEQ ID NO:25)] is higher in “Relative competitor activity to SEQ ID NO:2” value: 13 relative to SEQ ID NO:2 for the first, 27 relative to SEQ ID NO:2 for the second.

molecular target: T1, HLA-A*0201 molecules on T2 cells …; assay: functional competition assay

With SALMWITQA [peptide SALMWITQA (SEQ ID NO:21)] the “fold reduction in peptide binding (against the base peptide SEQ ID NO:6)” value was 100 fold.
